# Data taken from the RNAGym collection of RNA variant scans (doi:10.1073/pnas.2313332121).
# B1: TPR t1 (parent)
# chain: GACCAAUCUGCCCUCAGAGCUCGAGAACAUCUUCGGAUGCAGAGGAGGCAGGCUUCGGUGGCGCGAUAGCGCCAACGUCCUCAACCUCCAAUGCAUCCCACCACAUGAUGAUGCCUGAAGAGCCUUGGUUUUUUG
# Variants of: B1
# Assay: polymerase ribozyme fitness, log enrichment relative to wild type (log ratio); higher = more active; in vitro selection for triplet polymerase activity
# In short: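 Genotype fitness is the logarithm of its enrichment divided by wild-type enrichment, using inverse-variance-weighted averages of replicates. That logarithm is base 2. Enrichment was measured by Illumina sequencing of input and output libraries from one triplicate in vitro selection round, with frozen incubation at −7 °C, on PCR-built, transcribed mutant libraries of each subunit of a heterodimeric triplet polymerase ribozyme, retaining genotypes with ≥10 input reads and ≥1 read per output.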
row,Variant,polymerase ribozyme fitness (log ratio)
1,GACCAAUCUGCCUUCAGAGCUCGAGAACAUCUUCGGUUGCAGAGGAGGCAGGCUUCGGUGGCGUGAUAGCGCCAACGUCCUCAACCUCCAAAGCAUCCCACCACAUGAUGAUGCCUGAAGAGCCUCGGUUUUUUG [C13U A37U C64U U92A U126C],-3.51
2,GACCAAUCUGCCUUCAGAGCUCGAGAACAUCUUCGGAUGCAGAGGAGGCAGGCUUCGGUGGCGCGUUAGUGGCAACGUCCUCAACCUUCAAUGCAUCCCACCACAUGAUGAUGCCUGAAAAGCCUCGGUUUUUUG [C13U A66U C70U C72G C88U G120A U126C],-4.41
3,GACCAAUCUGCCUUGAGAGCUCGAGAACAUCUUCGGAUGCAGAGGAGGCGGGCUUCGGUGACGCGAUAGCGCCAACGUCCUCAACCUCCAAUGCAUCCCACCACAUGAUGAUGCCUGAAGAGCCUUGGUUUUUUG [C13U C15G A50G G61A],-1.6
4,GACCAAUCUGCCGUCAGAGCUCGAGAACAUCUUCGGAUGCAGAGGAGGCAGGCUUCGGUGGCGCGAUACCGCCAACGUCCUCAACCUCCAAUGUAUCCCACCACAUGAUGAUGCUUGAAGAGCCUUGGUUUUUUA [C13G G69C C94U C115U G135A],-3.43
5,GACCAAUCUGCCUUCAGAGCUCGAGAACAUCUUCGGGUGCAGAGGAAGCAGGCUUCCGUGGCGCGAUAGCCCCAACGUCCUCAACCUCCAAUGCAUCCCACCACAUGAUGAUGCCUGAAGAGCCUUGGUUUUUUG [C13U A37G G47A G57C G71C],-1.61
6,GACCAAUCUGCCUUCAGAGAUCGAGAACAUCUUCGGAGGCAGAGGAGGCAGGCUUCGGUGGCGCGAUAGCGCCAACGUCCUCAACCUCCAAUGCAUCCCACCACAUGAUGAUGCCUGAAGAGCCUUGGUUUUUUG [C13U C20A U38G],-4.15
7,GACCAAUCUGCCUUUAGAGCUCGAGAACAUCUUCGGUUGCUGAGGAGGCAGGCUUCGGGGGCGCGAUAGCGCCAACGUCCUCAACCUCCAAUGCAUCCCACCACAUGAUGAUGCCUGAAGAGCCUUGGUUUUUUG [C13U C15U A37U A41U U59G],-1.74
8,GACCAAUCUGCCUUCAGAGCUCGAGAACAUCUUCGGAUGCAGAGGAGGCAGGCUUCGGUGGCGCGAUAGCGCCUACGUCCUCAACCUCCAAUCCAUCCCACCACAUGAUGAUACCUGAAGAGCCUUGGUUUUUUG [C13U A74U G93C G113A],-1.26
9,GACCAAUCUGCCGUCAGAGCUCGAGAACAUCUUCGGAUGCAGAGGAGGCAGGCUUCGGUGGCGCGAUAGCGCCAACGUCCUCAACCUCCAAUGCAUCCCACCACAUGAUGAUGCCUGAAGAGCCUUGGUUUAUUG [C13G U132A],-1.5
10,GACCAAUCUGCCUUCAGCGCUCGAGAACAUCUUCGGAUGCAGAGGAGGCAGGCUGCGGUGGCGCGAUAGCGCCAACGUCCUCAACCUCCAAUUCAUCCCACCACAUGAUGAUGCCUGAAGAGCCUUGGUUUUUUG [C13U A18C U55G G93U],-2.65
11,GACCAAUCUGCCGUCAGAGCUCGAGAACAUCUUCGGAUGCAGAGGAGGCAGGCUUCGGUGGCGCGAUAGCACCAACGUCCUCAACCUCCAAUGCAUCCCACCACAUGAUGAUGCCUGAAGAGCCUUGUUUUUUUG [C13G G71A G128U],-4.42
12,GACCAAUCUGCCGUCAGAGCUCGAGAACAUCUUCGGAUGCAGAGGAGGCAGGCUUCGGUGGCGCGAUAGCUCCAACGUCCUCAACCUCCAAUGCAUCCCACCACAUGAUGACGCCUGAAGAGCCUUGGUUUUUUG [C13G G71U U112C],-0.426
13,GACCAAUCUGCCUUCAGAGCUCGAGAACAUCUUCGGAUGCAGCGGAGGCUGGCUUCGGUGGCGCGAUAGCGCUAACGUCCUCAACUUCCAAUGCAGCCCACCACAUGUUGAUGCCUUAAGAGCCUUGGUUUUUUG [C13U A43C A50U C73U C86U U96G A108U G117U],-6.8
14,GACCAAUCUGCCGUCAGAGCUCGAGAACAUCCUCGGAUGCAGAGGAGGCAGGCUUCGGUGGCGCGAUAGCGCCAACGUCCUCAAGCUCCAAUGCAUCCCACCACAUGAUGAUGCCUGAAGAGCCUUGGUUUUUUG [C13G U32C C85G],-4
15,GACCAAUCUGCCUUCAGAGCUCGAGGACAUCUUCGGAUGCAGAGGAGGCAGGCUUCGAUGGCGCGAUAGCGCCAACGUCCUCAACCUCCAAUGCAUCCCACCACAUGAUGAUGCCUGAAGAGCCUUGGUUUUUUG [C13U A26G G58A],-3.1
16,GACCAAUCUGCCUUCAGAGCUCGAGAACAUCUUCGGUUGCAGAGGAGGCAGGCUUCGGUGGCGGGAUAGCGCCAACGUCCUCAACCUCCAAUCCAUCCCACCACUUGAUUAUGCCUGAAGAGCCUUGGGUUUUUG [C13U A37U C64G G93C A105U G110U U129G],-7.07
17,GACCAAUCUGCCUUCAGCGCUCGAGAACAUCUUCGGCUGCAGAGGAGGUAGGCUUCGGUGGCGCGAUAGCGCCAACGUCCUCAACCUCCAAUGCAUCCCACCACAUGAUGAUGCCUGAAGCGCCUUGGUUUUUUG [C13U A18C A37C C49U A121C],-2.39
18,GACCAAUCUGCCUUCAGAGCUCGAGAACAUCUUCGGAUGCAGAGGUGGCAGGCUUCGGUGGCGCGAUAGCGCCAACGUCCUCAACCUCCAAUGCAUCCCACCACAUGAUGAUGCCUGAAGAGCCUUGGUUUUUUG [C13U A46U],-0.902
19,GACCAAUCUGCCGUCAGAGCUCGAGAACAUCUUCGGAUGCAGAGGAGGCAGGCUUCGGUGGCGCGAUAGCGCCAACGGCCUCAACCUCCAAUGCAUCCCACCACAUGAUGAUGCCUGAAGAGCCUUGGUUUUUUG [C13G U78G],-2.05
20,GACCAAUCUGCCGUCAGAGCUCGAGAACAUCUUCGGAUGCAGAGGAGGCAGGCUUCGGUGGCGCGAUAGCCCCAACGUCCUCAGCCUCCAAUGCAUCCCACCAAAUGAGGAUGCCUUAAGAGCAUUGGUGUUUUG [C13G G71C A84G C104A U109G G117U C124A U130G],-6.92
21,GACCAAUCUGCCUUCAGAGCUCGAGAACCUCUUCGGAUGCAGAGGAGGCAGGCUUCGGUGUCGCGAUAGCGCCAACGUCCUCAACCUCCAAUGCAUCCCACCACAUGAUGAUGCCUGAAGAGCCUUGGUUUUUUG [C13U A29C G61U],-2.08

row,Variant,polymerase ribozyme fitness (log ratio)
1,GACCAAUCUGCCUUCAGAGCUCGAGAACAUCUUCGGAUGCAGAGGAGGCUGGCUUCGGUGGCGCGGUAGCGCCAACGUCCUCAACCUUCUAUGCAUCCCACCACAUGAAGAUGCCCGAAGAGCCUUGGUUUUUUG [C13U A50U A66G C88U A90U U109A U116C],-5.37
2,GACCAAUCUGCCGUCAGAGCUCGAGAACAUCUUCGGAUGCAGAGGAGGCAGGCUUCGGAGGCGCGAUAGCGCCAACGUCCUCAACCUCCAUUGCAUCCCACCACAUGAUGAUGCUUGAAGAGCCUUGGUUUUUUG [C13G U59A A91U C115U],-4.42
3,GACCAAUCUGCCUUCAGAGCUCGAGAACCUCUUCGGAUGCAGAGGAGGCAGGCUUUGGUGGCGCGAUAGCGCCAACGUCCUCAACCUCCAAUGCAUCCCACCACAUGAUGAUGCCUGAAGAGCCUUGGUUUUUUG [C13U A29C C56U],-2.25
4,GACCAAUCUGCCGUCAGAGCUCGAGAACAUCUUCGGAUGCAGAGGAGGCAGGCUUCGGUGGCGCGAUAGCGCCAACGUCCCCAACCUCCAAUGCAUCCCACCACAUGAUGAUGCCUGAAGAGCCUUGGUUUUUUG [C13G U81C],-1.96
5,GACCAAUCUGCCUUCAGAGCUCGAGAACAUCUUCGGAUGCAGAGGAGGCAGGCUUCGGUGGCGCGAUAGCGCCAACGUCCUCCACCUCCAAUGCAUCCCACCACAUGAUGACGCCUGAAGAGCCUUGGUUUUUUG [C13U A83C U112C],1.79
6,GACCAAUCUGCCUUCAGUGCUCGAGAACAUCUUCGGAUGCACAGGAGGCAGGCUUCGGUGGCGCGAUAGCGCCAACGUCCUCAACCACCAAUGCAUCCCACCACAUGAUGAUGCCUGAAGAGCCUUGGUUUUUUG [C13U A18U G42C U87A],-0.601
7,GACCAAUCUGCCGUCAGAGCACGAGAACAUCUUCGGAUGCAGAGGAGGCAGCCUUCGGUGUCGCGAUAGCGCCAACGUCCUCAACCUCCACUGCAUCCCACCACAUGAUGAUGCCUGAACAGCCUUGGUUUUUUG [C13G U21A G52C G61U A91C G120C],-2.36
8,GACCAAUCUGCCUUCAGAGCUAGAGCACAUCUUCGGAUGCAGAGGAGGCAGGCUUGGGUGGCGCGAUAGCGCCAACGUCCUCAACCUCCAAUGCAUCCCACCACAUGAUGAUGCCUGAAGAACCUUGGUUUUUUG [C13U C22A A26C C56G G122A],-4.98
9,GACCAAUCUGCCGUCAGAGCUCGAGAACAUCUUCGGAUGCAGAGGAGGCAGGCUUCGGUGGCGCGAUAGCGCCAACGUCCUCAACCUCCAAUGCAUCCCACCACACGAUGAUGCCUGAAGAGCCUUGGUUUUUUG [C13G U106C],-2.21
10,GACCAAUCUGCCGUCAGAGCUCGAGAACAUCUUCGGAUGCAGAGGAGGCAGGCUUCGGUGGCGCGAUAGCGCCAACGUCCUCAACCUCCAAUGCAUCCCACCACAUGAUGAUGCCUGAAGAGCCUUGCUUUUUUG [C13G G128C],-3.48
11,GACCAAUCUGCCUUCAGAGCUCGAGAACAUCUUCGGAUGCAGAGGAGGCUGCAUUCGGUGGCGCGAUAGCGCCAACGUCCUCAACCACCAAUGCAUCCCACCACAUGAUGAUGCCUGAAGAGCCUUGGUUUUUUG [C13U A50U G52C C53A U87A],-3.76
12,GACCAAUCUGCCUUCAGAGCUCGAGAUCAUCUUCGGAUGCAGAGGAGGCAGGCUUCGGUGGCGCGAUAGCGCCAACGUACUCAACCUCCAAUGCAUCCCACCACAUGAUGAUGCCUGAAGAGCCUUGGUUUUUUG [C13U A27U C79A],-3.24
13,GACCAAUCUGCCUUCAGAGCUCGAGAACAUCUUCGGAUGCAGAGGAGGCAGGCUUCGGUGGCGCGAUAGCGCCAACGUCCUCAUCCUCCAAUGCAUCCCACCACAUGAUGAUUCCAGAGGAGCCUUGGUUUUUUU [C13U A84U G113U U116A A119G G135U],-6.59
14,GACCAAUCUGCCUUCAGAGCUCGAGAACAUCUUCGGAUGCAGAGGAGGCAGGCUUCGGUGGCGCGAUAGCGCCAACGUCCUCAACCUCCAAUGCAUCCCACCACAUGGUGAUGCCUGAAAAGCCUUGGUUUUUUG [C13U A108G G120A],-1.12
15,GACCAAUCUGCCGUCAGAGCUCGAGAACAUCUUCGGAUGCAGAGGAGGCAGGCUUCGGUGGCGCGAUAGCGCCAACGUCCUCAACCUCCAAUGCAUCCCACCACAUGAUGAAACCUGAAGAGCCUUGGUUUUUUG [C13G U112A G113A],-2.13
16,GACCAAUCUGCCUUGAGAGCUCGAGAACAUCUUCGGAUGCAGAGGAGGCAGGCUUCUGUGGCGCGAUAGCGCCAACGUCCUCAACCUCCAAUACAUCCCACCACAUGAUGAUGCCUAAAGAGCCUUGGUUUUUUG [C13U C15G G57U G93A G117A],-1.62
17,GACCAAUCUGCCGUCAGAGCUCGAGAACAUCUUCGGAUGCAGAGGAGGCAGGCUUCGGUGGCGCGAUAGCGCCAACGUCCUCAACCUCCAAUGCAUCCCACCACAUGAUGAUACCUGAAGAGCCUUGGUUUUUUG [C13G G113A],-2.45
18,GACCAAUCUGCCUUAAGAGCUCGAGAACAUCUUCGGAUGCAGAGGAGGCAGGCUUCGGUGGCCCGAUAGCGCCAACGUCCUCAACCUCCAAUGCAUCCCACCACAUGAUGAUGCCUGAAGAGCCUUGGUUUUUUG [C13U C15A G63C],-4.06
19,GACCAAUCUGCCUUCAGAGCUCGAGAACAUCUUCGGAUGCAGAGGAGGCAGGCUUCGGUGGCGCGAUAGCGCCAACGUCCUCAACCUCCAAUGCAUCCCACCACAUGAUGAUGCCUGAAGCGCCUUGGUUUUUUG [C13U A121C],1.84
20,GACCAAUCUGCCUUCAGAGGUCGAGAACAUCUUCGGAUGCAGAGGAGGCAGGCUUCGGUGGCCCGAUAGCGCCAACGUCCUCAACCUCCAAUGCAUCCCACCACAUGAUGAUGCCUGAAGAGCCUUGGUUUUUUG [C13U C20G G63C],-4.8
21,GACCAAUCUGCCGUCAGAGCUCGAGAACAUCUUCGGAUGCAGAGGAGGCAGGCUUCGGUGGCGCGAUAGCGCCAACGUCCUCAACCUCCAAUGCAUCCCACCACAUGAUGAUGCCUGAAGAGCCUUAGUUUUUUG [C13G G127A],-2.49
